Reference: patent US20090104178A1

What was measured:
[1] = target: APRIL (TNFL13); experiment: SPR
[2] = target: LIGHT (TNFL14); experiment: SPR

Purified recombinant EV CrmD protein (receptor)
Kd [1]: 110 µM | Kd [2]: 0.14 µM
